Test results: patent US20180194839A1 (Novartis, published 2018)
Read-outs that look alike come from different tables or passages of the source.

Legend:
[1] = molecular target: T1, recombinant human IL-17A (SEQ ID NO: 76) (human, UniProt Q16552 24-155, limits assumed); assay: cell-based or functional assay
T1 sequence: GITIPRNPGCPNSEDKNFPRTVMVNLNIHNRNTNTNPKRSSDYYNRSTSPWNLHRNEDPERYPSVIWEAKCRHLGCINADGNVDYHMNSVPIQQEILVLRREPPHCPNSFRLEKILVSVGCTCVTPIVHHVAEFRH

[2] = molecular target: T2, human IL-17A (construct not stated) (human, UniProt Q16552 24-155, limits assumed); assay: cell-based or functional assay
T2 sequence: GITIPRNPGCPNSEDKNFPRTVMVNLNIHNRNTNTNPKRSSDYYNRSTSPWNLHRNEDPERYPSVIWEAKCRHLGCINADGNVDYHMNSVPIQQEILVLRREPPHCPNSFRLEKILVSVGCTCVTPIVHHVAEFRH

[3] = molecular target: T1, recombinant human IL-17A (SEQ ID NO: 76); assay: cell-based or functional assay; remark: listed apart in the source
[4] = molecular target: T3, recombinant mouse IL-17A (SEQ ID NO: 83) (mouse, UniProt Q62386 26-158); assay: cell-based or functional assay
T3 sequence: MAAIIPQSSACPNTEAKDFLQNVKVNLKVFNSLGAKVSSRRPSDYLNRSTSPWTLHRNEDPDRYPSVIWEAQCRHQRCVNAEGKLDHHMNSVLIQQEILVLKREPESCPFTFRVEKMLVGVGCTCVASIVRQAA

[5] = molecular target: T4, recombinant human IL-17A (SEQ ID NO: 78) (human, UniProt Q16552 24-155, limits assumed); assay: SPR (Biacore), captured antibody, antigen as analyte
T4 construct: homodimer; also called huIL-17A; hulL-17A
T4 sequence: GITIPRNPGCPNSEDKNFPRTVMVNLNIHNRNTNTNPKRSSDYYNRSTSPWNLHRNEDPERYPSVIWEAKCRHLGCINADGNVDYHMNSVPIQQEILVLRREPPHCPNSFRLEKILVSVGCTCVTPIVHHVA

[6] = molecular target: T2, human IL-17A (construct not stated); assay: ELISA titration of purified Fab on plate-coated huIL-17A, normalized signal; x axis printed as log10 of Fab concentration (M)
[7] = molecular target: T2, human IL-17A (construct not stated); assay: ELISA on coated huIL-17A, crude Fab extract, wash of at least 3 h
[8] = molecular target: T2, human IL-17A (construct not stated); assay: ELISA on coated huIL-17A, crude Fab extract, overnight with 200 nM XAB1 Fab as competitor
[9] = molecular target: T2, human IL-17A (construct not stated); assay: ELISA on coated huIL-17A, crude Fab extract
[10] = molecular target: T5, recombinant human IL-17A/F heterodimer (human, UniProt Q16552 24-155; Q96PD4 31-163, limits assumed); assay: SPR (Biacore), captured antibody, antigen as analyte
T5 construct: heterodimer of an IL-17A subunit and an IL-17F subunit; also called huIL-17A/F; rhuIL-17A/F
T5 sequence (looked up) 1: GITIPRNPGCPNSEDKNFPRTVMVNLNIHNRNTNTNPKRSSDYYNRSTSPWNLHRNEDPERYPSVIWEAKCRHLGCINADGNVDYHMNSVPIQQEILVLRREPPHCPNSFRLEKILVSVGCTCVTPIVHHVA
T5 sequence (looked up) 2: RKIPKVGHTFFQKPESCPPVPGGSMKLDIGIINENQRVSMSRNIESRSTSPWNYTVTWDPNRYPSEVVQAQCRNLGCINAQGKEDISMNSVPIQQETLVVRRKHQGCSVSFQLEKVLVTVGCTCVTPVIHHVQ

[11] = molecular target: T6, recombinant cynomolgus IL-17A (SEQ ID NO: 79) (cynomolgus monkey, UniProt Q16552 24-155 (human entry), limits assumed); assay: as above
T6 construct: also called cynoIL-17A; cyno IL-17A
T6 chain: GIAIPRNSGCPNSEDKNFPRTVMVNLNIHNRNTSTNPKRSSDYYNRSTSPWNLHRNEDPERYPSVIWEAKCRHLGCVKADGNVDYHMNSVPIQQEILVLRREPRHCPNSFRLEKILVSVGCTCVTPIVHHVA

[12] = molecular target: T4, recombinant human IL-17A (SEQ ID NO: 78); assay: as above; remark: listed apart in the source
[13] = molecular target: T3, recombinant mouse IL-17A (SEQ ID NO: 83); assay: as above
[14] = molecular target: T7, recombinant rat IL-17A (SEQ ID NO: 85) (rat, UniProt Q61453 18-150); assay: as above
T7 construct: also called rratIL-17A; rIL-17A
T7 sequence: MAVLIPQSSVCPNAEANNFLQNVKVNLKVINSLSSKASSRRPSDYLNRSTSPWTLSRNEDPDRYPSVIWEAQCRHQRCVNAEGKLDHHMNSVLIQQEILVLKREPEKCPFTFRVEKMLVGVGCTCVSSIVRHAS

B1: XAB2 (antibody, human IgG1, kappa, V domains shown)
VH: EVQLVESGGDLVQPGGSLRLSCAASGFTFSSYWMSWVRQAPGKGLEWVANIKQDGSEKYYVDSVKGRFTISRDNAKNSLYLQMNSLRAEDTAVYYCARDRGSLYYWGQGTLVTVSS
VL: AIQLTQSPSSLSASVGDRVTITCRPSQVIISALAWYQQKPGKAPKLLIYDASSLEQGVPSRFSGSVSGTDFTLTISSLQPEDFATYYCQQFDSYPLTFGGGTKVEIKR
For B1, the “IC50, huIL-6 secretion by BJ cells; stimulus rhuIL-17A (0.5 nM)” value (“IC50, huIL-6 secretion by BJ cells” below) [1] was 0.64 nM, the “EC50, in vitro neutralization activity, T = 0 weeks” value (“EC50 … T = 0 weeks” below) [2] was 45 ng/mL and the “EC50, in vitro neutralization activity, T = 4 weeks at pH 8, 40°C (forced deamidation)” value (“EC50 … (forced deamidation)” below) [2] was 47 ng/ml. For the same binder, the “IC50, huGROα secretion by BJ cells; stimulus rhuIL-17A (0.5 nM)” value (“IC50, huGROα secretion by BJ cells” for short) [3] was 0.4 nM, the “IC50, KC secretion by CMT-93 cells; stimulus mIL-17A (0.15 nM)” value (“IC50, KC secretion by CMT-93 cells” for short) [4] was 20.9 nM and the Kd [5] was 0.0176 nM. For the same binder, the koff [5] was 7.12e-05 s⁻¹ and the kon [5] was 4.09e+06 M⁻¹ s⁻¹.

B2: XAB5 (antibody, human IgG1, kappa, V domains shown)
VH: EVQLVESGGDLVQPGGSLRLSCAASGFTFSSYWMSWVRQAPGKGLEWVANIKQDGSEKYYVDSVKGRFTISRDNAKNSLYLQMNSLRAEDTAVYYCARDRGSLYYWGQGTLVTVSS
VL: AIQLTQSPSSLSASVGDRVTITCRPSQGINWELAWYQQKPGKAPKLLIYDASSLENGVPSRFSGSGSGTDFTLTISSLQPEDFATYYCQQFNSYPLTFGGGTKVEIKR
For B2, the “IC50, huIL-6 secretion by BJ cells” value [1] was 0.54 nM, the “EC50 … T = 0 weeks” value [2] was 45 ng/mL and the “EC50 … (forced deamidation)” value [2] was 61 ng/ml. For the same binder, the “IC50, huGROα secretion by BJ cells” value [3] was 0.46 nM and the “IC50, KC secretion by CMT-93 cells” value [4] was 7.8 nM.

B3: MB440 (Fab, V domains shown)
VH: EVQLVESGGDLVQPGGSLRLSCAASGFTFSSYWMSWVRQAPGKGLEWVANIKQDGSEKYYVDSVKGRFTISRDNAKNSLYLQMNSLRAEDTAVYYCARDRGSLYYWGQGTLVTVSS
VL: AIQLTQSPSSLSASVGDRVTITCRPSQGILWQLAWYQQKPGKAPKLLIYDASSLENGVPSRFSGSGSGTDFTLTISSLQPEDFATYYCQQFNSYPLTFGGGTKVEIK
notes: heavy chain C-terminal Flag tag
B3 was tested, and the “EC50 (read off the curve)” value [6] was ~0.6 nM, the “Off-rate ELISA (normalized to XAB1 Fab)” value [7] was 52.5 ratio to XAB1 Fab and the “Competition ELISA (normalized to XAB1 Fab)” value [8] was 54 ratio to XAB1 Fab. The “Classic ELISA (normalized to XAB1 Fab)” value [9] was 2.8 ratio to XAB1 Fab.

B4: MB444 (Fab, V domains shown)
VH: EVQLVESGGDLVQPGGSLRLSCAASGFTFSSYWMSWVRQAPGKGLEWVANIKQDGSEKYYVDSVKGRFTISRDNAKNSLYLQMNSLRAEDTAVYYCARDRGSLYYWGQGTLVTVSS
VL: AIQLTQSPSSLSASVGDRVTITCRPSQGILWELAWYQQKPGKAPKLLIYDASSLENGVPSRFSGSGSGTDFTLTISSLQPEDFATYYCQQFNSYPLTFGGGTKVEIK
notes: as for B3
With B4 the “EC50 (read off the curve)” value [6] was ~2 nM, the “Off-rate ELISA (normalized to XAB1 Fab)” value [7] was 48.9 ratio to XAB1 Fab and the “Competition ELISA (normalized to XAB1 Fab)” value [8] was 52.4 ratio to XAB1 Fab. For the same binder, the “Classic ELISA (normalized to XAB1 Fab)” value [9] was 3.2 ratio to XAB1 Fab.

B5: MB468 (Fab, V domains shown)
VH: EVQLVESGGDLVQPGGSLRLSCAASGFTFSSYWMSWVRQAPGKGLEWVANIKQDGSEKYYVDSVKGRFTISRDNAKNSLYLQMNSLRAEDTAVYYCARDRGSLYYWGQGTLVTVSS
VL: AIQLTQSPSSLSASVGDRVTITCRPSQGIYWELAWYQQKPGKAPKLLIYDASSLENGVPSRFSGSGSGTDFTLTISSLQPEDFATYYCQQFNSYPLTFGGGTKVEIK
notes: heavy chain C-terminal Flag tag; with N56Q formatted to IgG as XAB3
With B5 the “EC50 (read off the curve)” value [6] was ~2 nM, the “Off-rate ELISA (normalized to XAB1 Fab)” value [7] was 43.9 ratio to XAB1 Fab and the “Competition ELISA (normalized to XAB1 Fab)” value [8] was 60 ratio to XAB1 Fab. For the same binder, the “Classic ELISA (normalized to XAB1 Fab)” value [9] was 2.8 ratio to XAB1 Fab.

B6: XAB3 (antibody, human IgG1, kappa, V domains shown)
VH: EVQLVESGGDLVQPGGSLRLSCAASGFTFSSYWMSWVRQAPGKGLEWVANIKQDGSEKYYVDSVKGRFTISRDNAKNSLYLQMNSLRAEDTAVYYCARDRGSLYYWGQGTLVTVSS
VL: AIQLTQSPSSLSASVGDRVTITCRPSQGIYWELAWYQQKPGKAPKLLIYDASSLEQGVPSRFSGSGSGTDFTLTISSLQPEDFATYYCQQFNSYPLTFGGGTKVEIKR
notes: also called MB468 N56Q
In the case of B6, the “IC50, huIL-6 secretion by BJ cells” value [1] is reported as 0.5 nM, the Kd [10] is reported as 0.0329 nM and the koff [10] is reported as 0.000103 s⁻¹. The kon [10] was 3.37e+06 M⁻¹ s⁻¹, the Kd [11] was 0.0349 nM and the koff [11] was 4.23e-05 s⁻¹. For the same binder, the kon [11] was 1.21e+06 M⁻¹ s⁻¹, the Kd [12] was 9.58 pM and the koff [12] was 5.01e-05 s⁻¹. The kon [12] was 5.48e+06 M⁻¹ s⁻¹, the Kd [13] was 0.174 nM and the koff [13] was 0.000101 s⁻¹. For the same binder, the kon [13] was 587000 M⁻¹ s⁻¹, the Kd [14] was 0.0826 nM and the koff [14] was 7.59e-05 s⁻¹. For the same binder, the kon [14] was 905000 M⁻¹ s⁻¹, the “EC50 … T = 0 weeks” value [2] was 40 ng/mL and the “EC50 … (forced deamidation)” value [2] was 40 ng/ml. The “IC50, huGROα secretion by BJ cells” value [3] was 0.42 nM and the “IC50, KC secretion by CMT-93 cells” value [4] was < 1 nM.

B7: MB463 (Fab, V domains shown)
VH: EVQLVESGGDLVQPGGSLRLSCAASGFTFSSYWMSWVRQAPGKGLEWVANIKQDGSEKYYVDSVKGRFTISRDNAKNSLYLQMNSLRAEDTAVYYCARDRGSLYYWGQGTLVTVSS
VL: AIQLTQSPSSLSASVGDRVTITCRPSQGIYFELAWYQQKPGKAPKLLIYDASSLENGVPSRFSGSGSGTDFTLTISSLQPEDFATYYCQQFNSYPLTFGGGTKVEIK
notes: as for B3
B7 was tested, and the “EC50 (read off the curve)” value [6] was ~3 nM, the “Off-rate ELISA (normalized to XAB1 Fab)” value [7] was 34.2 ratio to XAB1 Fab and the “Competition ELISA (normalized to XAB1 Fab)” value [8] was 31.6 ratio to XAB1 Fab. For the same binder, the “Classic ELISA (normalized to XAB1 Fab)” value [9] was 2.7 ratio to XAB1 Fab.

B8: MB464 (Fab, V domains shown)
VH: EVQLVESGGDLVQPGGSLRLSCAASGFTFSSYWMSWVRQAPGKGLEWVANIKQDGSEKYYVDSVKGRFTISRDNAKNSLYLQMNSLRAEDTAVYYCARDRGSLYYWGQGTLVTVSS
VL: AIQLTQSPSSLSASVGDRVTITCRPSQGIIYQLAWYQQKPGKAPKLLIYDASSLENGVPSRFSGSGSGTDFTLTISSLQPEDFATYYCQQFNSYPLTFGGGTKVEIK
notes: 30 stays I); heavy chain C-terminal Flag tag
B8 was tested, and the “EC50 (read off the curve)” value [6] was ~2 nM, the “Off-rate ELISA (normalized to XAB1 Fab)” value [7] was 34.9 ratio to XAB1 Fab and the “Competition ELISA (normalized to XAB1 Fab)” value [8] was 36.9 ratio to XAB1 Fab. The “Classic ELISA (normalized to XAB1 Fab)” value [9] was 2.7 ratio to XAB1 Fab.
